The target in this assay is T1, human apical domain TfR (human, UniProt P02786 198-378).
T1 construct: The SPR analyte is printed only as "human apical domain TfR"; also called human TfR; human transferrin receptor 1 apical domain
Nature of the assay: Biacore SPR as in Example 2; steady-state fit. As to the method:
To determine whether SGSH-Fc fusion proteins with engineered TfR binding affects the ability of the modified Fc domain to interact with human TfR, the affinity of ETV: SGSH Bizyme Structure 1 (Example 1) for human TfR was assessed using a Biacore™ surface plasmon resonance assay. Biacore™ Series S CM5 sensor chips were immobilized with anti-human Fab (human Fab capture kit from GE Healthcare). 5 μg/mL of the SGSH-Fc fusion proteins were captured for 1 minute on each flow cell and serial 3-fold dilutions of human apical domain TfR were injected at a flow rate of 30 μL/min. Each sample was analyzed with a 3-minute association and a 3-minute dissociation. After each injection, the chip was regenerated using 10 mM glycine-HCl (pH 2.1). Binding response was corrected by subtracting the RU from a flow cell capturing an irrelevant IgG at similar density. Steady-state affinities were obtained by fitting the response at equilibrium against the concentration using Biacore™ T200 Evaluation Software v3.1. Biacore™ analysis established that SGSH-Fc fusion proteins with a TfR-binding site engineered into the Fc region bind to human TfR.

Experimental findings from patent publication US20230062800A1 (DENALI THERAPEUTICS, published 2023) are described below.

T1 sequence (P02786 198-378 limits assumed): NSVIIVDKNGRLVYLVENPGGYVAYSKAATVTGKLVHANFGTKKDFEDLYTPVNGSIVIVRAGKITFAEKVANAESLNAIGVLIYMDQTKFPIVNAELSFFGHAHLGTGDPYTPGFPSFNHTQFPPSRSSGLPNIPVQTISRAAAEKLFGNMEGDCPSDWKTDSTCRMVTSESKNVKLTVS

B1: ETV:SGSH Bizyme Structure 4 (Fc fusion)
chain 1: RPRNALLLLADDGGFESGAYNNSAIATPHLDALARRSLLFRNAFTSVSSCSPSRASLLTGLPQHQNGMYGLHQDVHHFNSFDKVRSLPLLLSQAGVRTGIIGKKHVGPETVYPFDFAYTEENGSVLQVGRNITRIKLLVRKFLQTQDDRPFFLYVAFHDPHRCGHSQPQYGTFCEKFGNGESGMGRIPDWTPQAYDPLDVLVPYFVPNTPAARADLAAQYTTVGRMDQGVGLVLQELRDAGVLNDTLVIFTSDNGIPFPSGRTNLYWPGTAEPLLVSSPEHPKRWGQVSEAYVSLLDLTPTILDWFSIPYPSYAIFGSKTIHLTGRSLLPALEAEPLWATVFGSQSHHEVTMSYPMRSVQHRHFRLVHNLNFKMPFPIDQDFYVSPTFQDLLNRTTAGQPTGWYKDLRHYYYRARWELYDRSRDPHETQNLATDPRFAQLLEMLRDQLAKWQWETHDPWVCAPDGVLEEKLSPQCQPLHNELGGGGSDKTHTCPPCPAPEAAGGPSVFLFPPKPKDTLMISRTPEVTCVVVDVSHEDPEVKFNWYVDGVEVHNAKTKPREEQYNSTYRVVSVLTVLHQDWLNGKEYKCKVSNKALSAPIEKTISKAKGQPREPQVYTLPPSRDELTKNQVSLSCAVKGFYPSDIAVEWESNGQPENNYKTTPPVLDSDGSFFLVSKLTVDKSRWQQGNVFSCSVMHEALHNHYTQKSLSLSPGK
chain 2: RPRNALLLLADDGGFESGAYNNSAIATPHLDALARRSLLFRNAFTSVSSCSPSRASLLTGLPQHQNGMYGLHQDVHHFNSFDKVRSLPLLLSQAGVRTGIIGKKHVGPETVYPFDFAYTEENGSVLQVGRNITRIKLLVRKFLQTQDDRPFFLYVAFHDPHRCGHSQPQYGTFCEKFGNGESGMGRIPDWTPQAYDPLDVLVPYFVPNTPAARADLAAQYTTVGRMDQGVGLVLQELRDAGVLNDTLVIFTSDNGIPFPSGRTNLYWPGTAEPLLVSSPEHPKRWGQVSEAYVSLLDLTPTILDWFSIPYPSYAIFGSKTIHLTGRSLLPALEAEPLWATVFGSQSHHEVTMSYPMRSVQHRHFRLVHNLNFKMPFPIDQDFYVSPTFQDLLNRTTAGQPTGWYKDLRHYYYRARWELYDRSRDPHETQNLATDPRFAQLLEMLRDQLAKWQWETHDPWVCAPDGVLEEKLSPQCQPLHNELGGGGSDKTHTCPPCPAPEAAGGPSVFLFPPKPKDTLMISRTPEVTCVVVDVSHEDPEVKFNWYVDGVEVHNAKTKPREEQYNSTYRVVSVLTVLHQDWLNGKEYKCKVSNKALSAPIEKTISKAKGQPREPQVYTLPPSRDELTKNQVSLWCLVKGFYPSDIAVEWESYGTEWANYKTTPPVLDSDGSFFLYSKLTVTKEEWQQGFVFSCSVMHEALHNHYTQKSLSLSPGK
modifications: SGSH cysteine at position 70 (full-length SGSH numbering) largely converted to formylglycine (fGly 99% in Table 2); the fGly form is SEQ ID NO:95; SGSH cysteine at position 70 (full-length SGSH numbering) largely converted to formylglycine (fGly 99% in Table 2); the fGly form is SEQ ID NO:67
notes: Heterodimer; The preparation may be a mixture; also called fourth "N-terminal bizyme" SGSH-Fc fusion protein; P329S variant of Bizyme Structure 1
Take B1: binding was characterised by a dissociation constant (Kd) of 340 nM.
